Reference: article PMC6400189, “A three-domain copper-nitrite reductase with a unique sensing loop” (IUCrJ, 2019)

Columns and labels:
[1] = target: Copper-containing nitrite reductase (NirK) from Thermus scotoductus SA-01 (Thermus scotoductus SA-01); test: crystal structure; C121 crystal with the whole homotrimer in the asymmetric unit, 1.63 Å; 0.2 M CaCl2, 0.1 M HEPES sodium pH 7.5, 28% PEG 400, 16°C
[2] = target: Copper-containing nitrite reductase (NirK) from Thermus scotoductus SA-01 (Thermus scotoductus SA-01); test: crystal structure; twinned H3 crystals with one protomer in the asymmetric unit; trimer by the crystallographic threefold axis; data not shown
[3] = target: Copper-containing nitrite reductase (NirK) from Thermus scotoductus SA-01 (Thermus scotoductus SA-01); test: SEC; Superdex 200 10/300 column, 150 mM Tris-HCl pH 7.6, 0.5 ml/min, calibrated with mass markers; subunit mass by SDS-PAGE
[4] = substrate: O=NO; test: nitrite reductase kinetics, methyl viologen standard assay; assay type: biochemical, Thermus scotoductus; details: methyl viologen (dithionite-reduced) as artificial electron donor per standard NirK assay; apparent constant

stoichiometry N [1] | stoichiometry N [2] | stoichiometry N [3] | Molecule | Km [4] [µM] | kcat [4] [s⁻¹]
3 | 3 | 3 | Copper-containing nitrite reductase (NirK) from Thermus scotoductus SA-01 (enzyme) |  | 
 |  |  | TsNirK (Thermus scotoductus SA-01) (protein, codon-optimised gene in pET-22b(+), E. coli BL21(DE3); 451-residue subunits (~50 kDa), homotrimer, three Cu per subunit; domains Ala20-Glu137, Leu154-Ala282, Arg309-Leu444) AERHFTLEARSSIFEVDQGVYLRGFSFNDMSPGPMLVVEEGDTVHITLRNLDNVTHGLSIHAANTQTSRFLGNVQPGETREFSFTADFPGVFMYHCAPGGHGIMAHTMGGQFGMIVVEPKEKYRMERELGRGPDLKLYIIQSEAYASGRDFYDGKALYVMFNGRNFRYVDEPIPVRPGDYLRIYFLNVGPNLTSTLHVVGGIFEYMYYQGNPKNLVVGAQTALAGPSDSWVIEWRVPPVEGDYTLVTHVFGTAIKGALGILRAKKDAPRIPEVRAEGVPGVKEIPASAKRVVDPYGLASPGHEHTVRVPLDPALAQPVAVGAKALEPLPVTVQMVGNSFYPKVLEIPVGTTVEFVNEDVFDLLEGERTGRHDAVVIDVQGPEPFVTPKLGHGERYRITFTKPGEYVYICSIHPYMKGIIRVYEPLSQRADSQ | 27 ± 2 | 65 ± 1
